Results reported in publication PMC4833381.

Key:
[1] = biological target: HCMV gB of HCMV BADrUL131 (infected cells and extracellular virions) (human cytomegalovirus, BADrUL131) (UniProt P06473); experiment: co-IP
[2] = biological target: HCMV glycoprotein gH, strain TR (Ad vector) (human cytomegalovirus, strain TR); experiment: co-IP; IP-western: ARPE-19 cells transduced with Ad vectors, 1% NP-40 lysates; IP with anti-gH MAb 14-4b, anti-gB MAbs 9C1, 13H10, 15H7 or anti-FLAG MAb; protein-A agarose; blots for gB, gH, HSV-1 gH or HSV-1 gD; percent against 5% input (ImageJ)
[3] = biological target: HCMV glycoprotein gH, strain TR (Ad vector) (human cytomegalovirus, strain TR); experiment: co-IP; IP-western: MRC-5 fibroblasts transduced with Ad vectors, 1% NP-40 lysates; IP with anti-gH MAb 14-4b; blot with anti-gB rabbit serum; percent against 5% input
[4] = biological target: HCMV glycoprotein gH, strain TR (Ad vector) (human cytomegalovirus, strain TR); experiment: co-IP; pulse-chase: Ad-transduced ARPE-19 cells labeled 15 min with 35S-methionine/cysteine, chased 60, 120 or 240 min; 1% NP-40 extracts; IP with anti-gH MAb 14-4b; SDS-PAGE under reducing conditions
[5] = biological target: HCMV gB of clinical strain TR (extracellular virions) (human cytomegalovirus, strain TR); experiment: co-IP; IP-western: extracellular virions of HCMV clinical strain TR solubilized in 1% NP-40; IP with anti-gB MAb 15H7; gH signal read beside a linear range of gH/gL lysate (Image Studio, Licor)
[6] = biological target: HCMV gB with a C-terminal FLAG epitope tag (Ad vector) (human cytomegalovirus) (UniProt P06473); experiment: co-IP; IP-western: ARPE-19 cells transduced with Ad vectors, 1% NP-40 lysates; IP with anti-gH MAb 14-4b, anti-gB MAbs 9C1, 13H10, 15H7 or anti-FLAG MAb; protein-A agarose; blots for gB, gH, HSV-1 gH or HSV-1 gD; percent against 5% input (ImageJ)
[7] = biological target: HCMV glycoprotein gB, lab strain AD169 (Ad vector) (human cytomegalovirus, strain AD169) (UniProt P06473); experiment: as above
[8] = biological target: HCMV gL of HCMV BADrUL131 (extracellular virions) (human cytomegalovirus, BADrUL131) (UniProt P16832); experiment: co-IP
[9] = biological target: HCMV UL130 of HCMV BADrUL131 (extracellular virions) (human cytomegalovirus, BADrUL131) (UniProt P16772); experiment: co-IP
[10] = biological target: HCMV gB of HCMV BADrUL131 (infected cells and extracellular virions) (human cytomegalovirus, BADrUL131) (UniProt P06473); experiment: co-IP; IP-western, repeat with an additional BADrUL131 virion preparation solubilized in 1% NP-40; IP with anti-gB MAb 15H7; gH signal read beside a linear range of gH/gL lysate (Image Studio, Licor)

Chain of UniProt P16832 (P16832 31-278): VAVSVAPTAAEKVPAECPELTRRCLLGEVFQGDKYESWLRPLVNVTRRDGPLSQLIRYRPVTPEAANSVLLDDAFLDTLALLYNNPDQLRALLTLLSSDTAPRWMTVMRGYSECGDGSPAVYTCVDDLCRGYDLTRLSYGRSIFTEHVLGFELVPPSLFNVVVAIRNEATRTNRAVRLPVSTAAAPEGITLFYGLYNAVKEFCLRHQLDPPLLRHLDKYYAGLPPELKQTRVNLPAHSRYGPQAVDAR

**Q.** “HCMV UL130 of HCMV BADrUL131 (extracellular virions) (from UniProt P16772) (natural protein)” was tested. Which percent of the total co-IP'd with gB [1] did it give?
**A.** 2.5%

**Q.** For “HCMV glycoprotein gB, lab strain AD169 (Ad vector) (from UniProt P06473 32-906) (natural protein)”, which percent of the total gB co-IP'd with gH/gL [2] is on record?
**A.** 16.5%

**Q.** What about the percent of the total gB co-IP'd with gH/gL [3] of the same substance?
**A.** 13%

**Q.** And the gB complexed with gH/gL, percent of the gH/gL precipitated (pulse sample) [4]?
**A.** 38%

**Q.** “HCMV gH of clinical strain TR (extracellular virions) (natural protein)” was tested. Which percent of the total gH co-IP'd with gB [5] did it give?
**A.** 16%

**Q.** “HCMV gO of HCMV BADrUL131 (extracellular virions) (from UniProt P16750 31-466) (natural protein)” was tested. Which percent of the total co-IP'd with gB [1] did it give?
**A.** 1%

**Q.** For “HCMV glycoprotein gH, strain TR (Ad vector) (natural protein)”, which percent of gH/gL co-IP'd with gB MAbs or anti-FLAG MAbs [6] is on record?
**A.** 1 to 6%

**Q.** What about the percent of gH/gL co-IP'd with gB MAbs or anti-FLAG MAbs [7] of the same substance?
**A.** 1 to 6%

**Q.** “HCMV gH of HCMV BADrUL131 (infected cells and extracellular virions) (from UniProt P12824 24-743) (natural protein)” was tested. Which percent of the total gH IP'd with gL antibodies [8] did it give?
**A.** 8%

**Q.** What about the percent of the total gH/gL co-IP'd with gB [1] of the same substance?
**A.** 50%

**Q.** What about the percent of the total gH/gL precipitated with anti-UL130 serum [9] of the same substance?
**A.** 24%

**Q.** What about the percent of the total gH co-IP'd with gB [10] of the same substance?
**A.** 21%

**Q.** How did the percent of the total gB precipitated with anti-UL130 serum [9] turn out when “HCMV gB of HCMV BADrUL131 (infected cells and extracellular virions) (from UniProt P06473 32-906) (natural protein)” was run?
**A.** 1%
